Source: patent US20210388110A1 (published 2021)

These binders were tested against T1, soluble human CD3ε chain (human, UniProt P07766 23-126, limits assumed) (assay: SPR (Biacore)).
T1 construct: the text says soluble human CD3ε chain; also called human CD3 epsilon chain
T1 sequence (P07766 23-126 limits assumed): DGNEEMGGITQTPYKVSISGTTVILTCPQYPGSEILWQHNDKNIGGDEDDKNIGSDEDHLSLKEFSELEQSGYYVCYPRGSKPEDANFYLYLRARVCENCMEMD

Binder | Kd [nM]
TR01H015-E22Hh/none-Hi-Kn010G3/L0000-k0 (antibody, human IgG1, kappa, L234A L235A, N297A, single-arm) heavy: QVQLVESGGGLVQPGRSLRLSCAASGFTFSNAWMHWVRQAPGKGLEWVAQIKGKSNNYATYYAESVKGRFTISRADSKNSIYLQMNSLKTEDTAVYYCRYVHYSASYGVDIWGQGTTVTVSSASTKGPSVFPLAPSSKSTSGGTAALGCLVKDYFPEPVTVSWNSGALTSGVHTFPAVLQSSGLYSLSSVVTVPSSSLGTQTYICNVNHKPSNTKVDKKVEPKSCDKTHTCPPCPAPEAAGGPSVFLFPPKPKDTLMISRTPEVTCVVVDVSHEDPEVKFNWYVDGVEVHNAKTKPREEQYASTYRVVSVLTVLHQDWLNGKEYKCKVSNKALPAPIEKTISKAKGQPREPQVYTLPPSRCELTKNQVSLSCAVKGFYPSDIAVEWESNGQPENNYKTTPPVLDSDGSFFLVSKLTVDKSRWQQGNVFSCSVMHEALHNHYTQKSLSLSPDYKDDDDK EPKSSDKTHTCPPCPAPELLGGPSVFLFPPKPKDTLMISRTPEVTCVVVDVSHEDPEVKFNWYVDGVEVHNAKTKPREEQYNSTYRVVSVLTVLHQDWLNGKEYKCKVSNKALPAPIEKTISKAKGQPREPQVCTLPPSRDELTKNQVSLWCLVKGFYPSDIAVEWESNGQPENNYKTTPPVLDSDGSFFLYSKLTVDKSRWQQGNVFSCSVMHEALHNRYTQKSLSLSP light: DIVMTQSPLSLPVTPGEPASISCRSSQSLVHSNRNTYLHWYQQKPGQAPRLLIYKVSNRFSGVPDRFSGSGSGTDFTLKISRVEAEDVGVYYCGQGTQVPYTFGQGTKLEIKRTVAAPSVFIFPPSDEQLKSGTASVVCLLNNFYPREAKVQWKVDNALQSGNSQESVTEQDSKDSTYSLSSTLTLSKADYEKHKVYACEVTHQGLSSPVTKSFNRGEC | 61.3
TR01H017-E22Hh/none-Hi-Kn010G3/L0000-k0 (antibody, human IgG1, kappa, L234A L235A, N297A, single-arm) heavy: QVQLVESGGGLVQPGGSLRLSCAASGFTFSNAWMHWVRQAPGKGLEWVAQIKAKSNNYATYYAESVKGRFTISRADSKNSIYLQMNSLKTEDTAVYYCRYVHYGAYYGVDIWGQGTTVTVSSASTKGPSVFPLAPSSKSTSGGTAALGCLVKDYFPEPVTVSWNSGALTSGVHTFPAVLQSSGLYSLSSVVTVPSSSLGTQTYICNVNHKPSNTKVDKKVEPKSCDKTHTCPPCPAPEAAGGPSVFLFPPKPKDTLMISRTPEVTCVVVDVSHEDPEVKFNWYVDGVEVHNAKTKPREEQYASTYRVVSVLTVLHQDWLNGKEYKCKVSNKALPAPIEKTISKAKGQPREPQVYTLPPSRCELTKNQVSLSCAVKGFYPSDIAVEWESNGQPENNYKTTPPVLDSDGSFFLVSKLTVDKSRWQQGNVFSCSVMHEALHNHYTQKSLSLSPDYKDDDDK EPKSSDKTHTCPPCPAPELLGGPSVFLFPPKPKDTLMISRTPEVTCVVVDVSHEDPEVKFNWYVDGVEVHNAKTKPREEQYNSTYRVVSVLTVLHQDWLNGKEYKCKVSNKALPAPIEKTISKAKGQPREPQVCTLPPSRDELTKNQVSLWCLVKGFYPSDIAVEWESNGQPENNYKTTPPVLDSDGSFFLYSKLTVDKSRWQQGNVFSCSVMHEALHNRYTQKSLSLSP light: DIVMTQSPLSLPVTPGEPASISCRSSQSLVHSNRNTYLHWYQQKPGQAPRLLIYKVSNRFSGVPDRFSGSGSGTDFTLKISRVEAEDVGVYYCGQGTQVPYTFGQGTKLEIKRTVAAPSVFIFPPSDEQLKSGTASVVCLLNNFYPREAKVQWKVDNALQSGNSQESVTEQDSKDSTYSLSSTLTLSKADYEKHKVYACEVTHQGLSSPVTKSFNRGEC | 35
TR01H015-E22Hh/none-Hi-Kn010G3/TR01L001-k0 (antibody, human IgG1, kappa, L234A L235A, N297A, single-arm) heavy: QVQLVESGGGLVQPGRSLRLSCAASGFTFSNAWMHWVRQAPGKGLEWVAQIKGKSNNYATYYAESVKGRFTISRADSKNSIYLQMNSLKTEDTAVYYCRYVHYSASYGVDIWGQGTTVTVSSASTKGPSVFPLAPSSKSTSGGTAALGCLVKDYFPEPVTVSWNSGALTSGVHTFPAVLQSSGLYSLSSVVTVPSSSLGTQTYICNVNHKPSNTKVDKKVEPKSCDKTHTCPPCPAPEAAGGPSVFLFPPKPKDTLMISRTPEVTCVVVDVSHEDPEVKFNWYVDGVEVHNAKTKPREEQYASTYRVVSVLTVLHQDWLNGKEYKCKVSNKALPAPIEKTISKAKGQPREPQVYTLPPSRCELTKNQVSLSCAVKGFYPSDIAVEWESNGQPENNYKTTPPVLDSDGSFFLVSKLTVDKSRWQQGNVFSCSVMHEALHNHYTQKSLSLSPDYKDDDDK EPKSSDKTHTCPPCPAPELLGGPSVFLFPPKPKDTLMISRTPEVTCVVVDVSHEDPEVKFNWYVDGVEVHNAKTKPREEQYNSTYRVVSVLTVLHQDWLNGKEYKCKVSNKALPAPIEKTISKAKGQPREPQVCTLPPSRDELTKNQVSLWCLVKGFYPSDIAVEWESNGQPENNYKTTPPVLDSDGSFFLYSKLTVDKSRWQQGNVFSCSVMHEALHNRYTQKSLSLSP light: DIVMTQSPLSLPVTPGEPASISCQASESLVHSNRNTYLHWYQQKPGQAPRLLIYKVSNRFSGVPDRFSGSGSGTDFTLKISRVEAEDVGVYYCGQGTQVPYTFGQGTKLEIKRTVAAPSVFIFPPSDEQLKSGTASVVCLLNNFYPREAKVQWKVDNALQSGNSQESVTEQDSKDSTYSLSSTLTLSKADYEKHKVYACEVTHQGLSSPVTKSFNRGEC | 65.6
TR01H015-E22Hh/none-Hi-Kn010G3/TR01L003-k0 (antibody, human IgG1, kappa, L234A L235A, N297A, single-arm) heavy: QVQLVESGGGLVQPGRSLRLSCAASGFTFSNAWMHWVRQAPGKGLEWVAQIKGKSNNYATYYAESVKGRFTISRADSKNSIYLQMNSLKTEDTAVYYCRYVHYSASYGVDIWGQGTTVTVSSASTKGPSVFPLAPSSKSTSGGTAALGCLVKDYFPEPVTVSWNSGALTSGVHTFPAVLQSSGLYSLSSVVTVPSSSLGTQTYICNVNHKPSNTKVDKKVEPKSCDKTHTCPPCPAPEAAGGPSVFLFPPKPKDTLMISRTPEVTCVVVDVSHEDPEVKFNWYVDGVEVHNAKTKPREEQYASTYRVVSVLTVLHQDWLNGKEYKCKVSNKALPAPIEKTISKAKGQPREPQVYTLPPSRCELTKNQVSLSCAVKGFYPSDIAVEWESNGQPENNYKTTPPVLDSDGSFFLVSKLTVDKSRWQQGNVFSCSVMHEALHNHYTQKSLSLSPDYKDDDDK EPKSSDKTHTCPPCPAPELLGGPSVFLFPPKPKDTLMISRTPEVTCVVVDVSHEDPEVKFNWYVDGVEVHNAKTKPREEQYNSTYRVVSVLTVLHQDWLNGKEYKCKVSNKALPAPIEKTISKAKGQPREPQVCTLPPSRDELTKNQVSLWCLVKGFYPSDIAVEWESNGQPENNYKTTPPVLDSDGSFFLYSKLTVDKSRWQQGNVFSCSVMHEALHNRYTQKSLSLSP light: DIVMTQSPLSLPVTPGEPASISCRSSQSLVHSNRNTYLHWYQQKPGQAPRLLIYKVSNRFSGVPDRFSGSGSGTDFTLKISRVEAEDVGVYYCGQGTQVPYTFGQGTKVEIERTVAAPSVFIFPPSDEQLKSGTASVVCLLNNFYPREAKVQWKVDNALQSGNSQESVTEQDSKDSTYSLSSTLTLSKADYEKHKVYACEVTHQGLSSPVTKSFNRGEC | 63.4
TR01H015-E22Hh/none-Hi-Kn010G3/TR01L005-k0 (antibody, human IgG1, kappa, L234A L235A, N297A, single-arm) heavy: QVQLVESGGGLVQPGRSLRLSCAASGFTFSNAWMHWVRQAPGKGLEWVAQIKGKSNNYATYYAESVKGRFTISRADSKNSIYLQMNSLKTEDTAVYYCRYVHYSASYGVDIWGQGTTVTVSSASTKGPSVFPLAPSSKSTSGGTAALGCLVKDYFPEPVTVSWNSGALTSGVHTFPAVLQSSGLYSLSSVVTVPSSSLGTQTYICNVNHKPSNTKVDKKVEPKSCDKTHTCPPCPAPEAAGGPSVFLFPPKPKDTLMISRTPEVTCVVVDVSHEDPEVKFNWYVDGVEVHNAKTKPREEQYASTYRVVSVLTVLHQDWLNGKEYKCKVSNKALPAPIEKTISKAKGQPREPQVYTLPPSRCELTKNQVSLSCAVKGFYPSDIAVEWESNGQPENNYKTTPPVLDSDGSFFLVSKLTVDKSRWQQGNVFSCSVMHEALHNHYTQKSLSLSPDYKDDDDK EPKSSDKTHTCPPCPAPELLGGPSVFLFPPKPKDTLMISRTPEVTCVVVDVSHEDPEVKFNWYVDGVEVHNAKTKPREEQYNSTYRVVSVLTVLHQDWLNGKEYKCKVSNKALPAPIEKTISKAKGQPREPQVCTLPPSRDELTKNQVSLWCLVKGFYPSDIAVEWESNGQPENNYKTTPPVLDSDGSFFLYSKLTVDKSRWQQGNVFSCSVMHEALHNRYTQKSLSLSP light: DIVMTQSPLSLPVTPGEPASISCRSSQSLVHSNRNTYLHWYLQKPGQSPQLLIYKVSNRFSGVPDRFSGSGSGTDFTLKISRVEAEDVGVYYCGQGTQVPYTFGQGTKVEIERTVAAPSVFIFPPSDEQLKSGTASVVCLLNNFYPREAKVQWKVDNALQSGNSQESVTEQDSKDSTYSLSSTLTLSKADYEKHKVYACEVTHQGLSSPVTKSFNRGEC | 65.3
TR01H016-E22Hh/none-Hi-Kn010G3/L0000-k0 (antibody, human IgG1, kappa, L234A L235A, N297A, single-arm) heavy: QVQLVESGGGLVQPGRSLRLSCAASGFTFSNAWMHWVRQAPGKGLEWVAQIKGKSNNYATYYAESVKGRFTISRADSKNSIYLQMNSLKTEDTAVYYCRYVHYSYSYGVDIWGQGTTVTVSSASTKGPSVFPLAPSSKSTSGGTAALGCLVKDYFPEPVTVSWNSGALTSGVHTFPAVLQSSGLYSLSSVVTVPSSSLGTQTYICNVNHKPSNTKVDKKVEPKSCDKTHTCPPCPAPEAAGGPSVFLFPPKPKDTLMISRTPEVTCVVVDVSHEDPEVKFNWYVDGVEVHNAKTKPREEQYASTYRVVSVLTVLHQDWLNGKEYKCKVSNKALPAPIEKTISKAKGQPREPQVYTLPPSRCELTKNQVSLSCAVKGFYPSDIAVEWESNGQPENNYKTTPPVLDSDGSFFLVSKLTVDKSRWQQGNVFSCSVMHEALHNHYTQKSLSLSPDYKDDDDK EPKSSDKTHTCPPCPAPELLGGPSVFLFPPKPKDTLMISRTPEVTCVVVDVSHEDPEVKFNWYVDGVEVHNAKTKPREEQYNSTYRVVSVLTVLHQDWLNGKEYKCKVSNKALPAPIEKTISKAKGQPREPQVCTLPPSRDELTKNQVSLWCLVKGFYPSDIAVEWESNGQPENNYKTTPPVLDSDGSFFLYSKLTVDKSRWQQGNVFSCSVMHEALHNRYTQKSLSLSP light: DIVMTQSPLSLPVTPGEPASISCRSSQSLVHSNRNTYLHWYQQKPGQAPRLLIYKVSNRFSGVPDRFSGSGSGTDFTLKISRVEAEDVGVYYCGQGTQVPYTFGQGTKLEIKRTVAAPSVFIFPPSDEQLKSGTASVVCLLNNFYPREAKVQWKVDNALQSGNSQESVTEQDSKDSTYSLSSTLTLSKADYEKHKVYACEVTHQGLSSPVTKSFNRGEC | 36.9
